System: K4 kissing-loop RNA reporter
Test: apparent KD of K4 kissing-loop reporter; higher = weaker reporter binding
Details: Eterna round: R107
Experimental: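 RNA-MaP round R107: designed RNA switches with theophylline, tryptophan, arginine or FMN aptamers are transcribed on-chip within common flanks. They are titrated with a labelled K4 kissing-loop RNA reporter in RNA-MaP buffer (100 mM Tris pH 7.5, 80 mM KCl, 4 mM MgCl2), without ligand or with the indicated ligand. Median apparent KD per design.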

[1] = input ligand: theophylline 20 uM
[2] = input ligand: tryptophan 2.4 mM
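Note: bound reporter read as fluorescence of individual clusters on recovered sequencing chips by microscopy, with normalized cluster intensities fitted with a binding model.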

Sequence	apparent KD of K4 kissing-loop reporter (input ligand: FMN 200 uM) [nM]	apparent KD of K4 kissing-loop reporter (input ligand: arginine 13.2 mM) [nM]	apparent KD of K4 kissing-loop reporter (input ligand: none) [nM]	apparent KD of K4 kissing-loop reporter [1] [nM]	apparent KD of K4 kissing-loop reporter [2] [nM]
AUCUCGGUAUCAGAUACCAGACUAUCGAUACCGAGUGUAUCGGGUAGUGAUGUUACCAUAGUCCCUUGGCAGCUGGUAGUUCAUA [Theo B SS t9c]	256	249	261	280	213
UUGGGCGAGGUAACGUGGAUAUCUCGUCGCAAGGAUAUCUGGAAACAGAGAAGGUGCUACAUUACCGGCAGUGAUGUUGCUGACC	418	101	555	347	121
CCGCUGUAGUGCAUUAAGUGAUGUUUAGUGCAGGAUAUCUGGAAACAGAGAAGGGCACGUACUCGACGAGGCCAAUACAGCGGUU	319	290	335	310	358
UGUCAUUGGUCGGCCGCCACUGGACCGGGUAUAAUCCCAGUGAUGUUGGUAAAAUACGGCCGCCACAGGACCGGGACCGAUGACU [TrypBS 15 #DoubleAptamer #SwitchBubble #K4Middle]	234	208	240	215	134
AAGUGUGUGGCGGCCGCCACUAGAAUCCAGUGAUGUUGGAGAUAUCAGGUAACUGAUAUCCAACAUAGGACCGGGCCAUAUAGAA [Same State - Tryptophan B (Freestyle 11)]	152	104	144	108	91.9
GCCGUAGAUUGAAGGAGCGGUAUGGGCGGUGGCUGAGUGAUGUUCAGGAAAAGUGGCUUCUACCAGGUAGGUCGCAAUCUACGGC	108	103	127	146	113
GAGAAUCUCACGGCCGCCACUCACCUGUUAAUUGACAUCGACGGCCUCGACCAGUGAUGUUGUGUGAGGACCGGGUGUCUCGUGU [theeternabot_exclusion_KL_Trp_B_32]	647	519	702	562	423
AAAUGAAGGGCUCGCAGUGAUGUUGCGAGACGAGGACCGGUACGGCCGCCACUCGGCCGCUACUUUGACUCGGGCUUUAAGCUAC [Usarusteer]	148	139	145	140	138
AAGGUUGUGCAUGGGAGUGAUGUUCCCAAGCAGGAUAUCGCUCACGCGAGAAGGGCUUGCACAACCGCUCAAGAAACUUGAGCAA [Omei KL FMN A SS C v6]	129	179	195	200	188
ACGAUCUUCGGCCUAUGAGUGAUGUUUAUGCGAGGACCGGUACGGCCGCCACUCGGGCGGUUAUUCACUACGCCUCUUCCGUCGA [theeternabot_exclusion_KL_Trp_A_37]	900	435	1040	517	649
ACGAAGGAUGGAAGGAGCGCUCGUCAGUCCUGCGAGUGAUGUUCGUGGGUAAAUAGUCGCGAGCAGGUAGGUCGCCAUCUUGAGC [Isarteza]	133	104	119	112	108
GAUAAUUACGUAGGAUAUCCAUAUCCGCGGUCUUGAUGGAUUUUUACGAUCCAGUGAUGUUGGAUUGGAGAAGGACGGAGGCAAA [Arquedis]	289	392	403	435	362
AGAGUCGGCUGUGAUACCAGUCGUAUAACAACAUGUCGCAGUGAUGUUGCGAGAUAGGAUGACCCUUGGCAGCACUCAGUACGAU [Same State Theophylline B GF 7]	425	372	347	404	426
UUGUUUGGUUGAGAGGUUGGGCGAGAUGAUACCAGUAUAGUAGAGUACCCUUGGCAGCAUAGGAGAGAUAUAGUGAUGUUGUAUG [SSTheophA.U]	390	302	477	482	381
AUCACAGUGAUGUUGUGAUAUACUUCAGAUACCAGACUAGUGCUAGUCCCUUGGCAGCUGAACUCAGCAGCACCACUAGCACUCG [Theo A Ex t6a]	153	130	139	144	134
ACAGAGUGAUGUUUUGUAAAGAUCUUUGAUACCAGCGCCAGAAAUCGCCCUUGGCAGCAAGCCGUACAUACGUUGAUUGAUCCAC [theeternabot_exclusion_KL_Theo_A_14]	738	694	926	758	577
UUUAUAAAGUCGGCCGCCACUGGUUUUAUUUUUGUUUAAUCUGGAUCAUAGUGAUGUUAUGAGACCAGGACCGGGACAUUUGUUA [#08 K4 Tryptophan B Exclusion]	89.5	86	88.2	93.8	132
UCAAGAGAACUUAAAUUUGAUCAACGCUCGCGAGGACCGGUACGGCCGCCACUCGACCGUUAGUGCCUCAUCCAGUGAUGUUGGG [theeternabot_sameState_KL_Trp_A_6]	537	394	500	508	476
GUACGCUUCCGAGUGAUGUUCGGUAAUAGUUAGGAUAUCGCUUUUGCGAGAAGGAACUGAAUGAGGAAACUCGUUCGAAGUGUAC [FMN A 17]	406	336	540	396	459
CCCUCACGAGUGAUGUUCGUAGGGUACAGUCAGGAUAUCAUGCGGUUGAGAAGGGACAGAGAGGGCGGCGGCGGGUUGCUCUUCG [Xeaan]	155	190	242	271	222
AUAAUCUUGCAGUGAUGUUGCAAGAAAGCUCAGGAUAUCAGGAAACUGAGAAGGGAGCAUCCUGAGCACUUGCAACAGUGCUCAG [[K1]-[K2]-[F1]-[F2]-[F]'-[K]'-[F]''_Design3]	127	100	296	288	117
CAUAGGAAACUAUGUAUCUCUCUUACUGAAGGAGCGCGUGAAAACGCAGGUAGGUCGCAGAAUUUAAUAGAGAGUGAUGUUCUCA [Ex Arginine A K4 6]	393	332	496	513	473

Sequence	apparent KD of K4 kissing-loop reporter (input ligand: FMN 200 uM) [nM]	apparent KD of K4 kissing-loop reporter (input ligand: arginine 13.2 mM) [nM]	apparent KD of K4 kissing-loop reporter (input ligand: none) [nM]	apparent KD of K4 kissing-loop reporter [1] [nM]	apparent KD of K4 kissing-loop reporter [2] [nM]
UGUGUUGUUGUGAUGUUUGGUGUUGUAGGGCAGGAUAUCGUAGAGGCGAGAAGGGCUUUUGUGCGGUAUGAGUGAUGUUUGUAGG [svvsmullin]	119	89.3	160	134	122
GCUAUGGUUGGAAGGAGCGUUUAAUUACUAAUAAGAGUGAUGUUCGAUAGUAGGUAAUUGUAGCAGGUAGGUCGCCAACUAUAGC [KL-Arg B25]	215	232	186	222	224
UAUAGGGAUAGUGAUGUUAUCCCAUGUGAUACCAGUGCCAUCCAACACCCUUGGCAGCAUACGGGCAGUGAUGUUGUUCUUGGUA [Exclusion Theophylline A GF 14]	102	88.9	99.1	89.5	97.2
UCGGACCCUGGAGGAUAUGAGUCGAGUGAUGUUCGGCGGUCCAUGCUGGUGCGGCGUUAUGCCCUUUUAGAAGGCCAGGGUCCGA [#2 Exclusion - FMN B Attempt #12 (HarryS)]	220	147	194	174	162
GGGAGUAGUGCGGCCGCCACUGUGAAAGAAGAAGAAUAUAGUGAUGUUAUAUAGGAAGGGAAGAAUAGGACCGGGCAUUAGAUUU [SSTRyptB.aA]	186	355	417	190	186
UUUAAAUAUAGUGAUGUUAUAUAACAAUGACGAGGACCGGUACGGCCGCCACUCGAGAGAGAUAAUGGUAAAAUAAAUAAUUUUC [AstrosSSTryA#3]	395	585	709	783	389
GGAUAGGACAGAGGAUAUGGUAGUGAUGUUACCAAACUGGUUAUCAAUGUUAGAAAAUUGACAAAUCCAGAAGGCUGUCCUAUCG [KL-XFMN-B14]	198	60.7	66.4	54.8	62
AGAGUUAUAUGAGGAUAUGAGAUAGUUAAUGAGUGAGUUAUAGUGUAGUUUGUUUAGUGAUGUUAUUUAGAAGGCGUGAGUGAUG [ljjlumullin]	140	89.4	122	133	88.8
GCCGUAGAUUGAAGGAGCGGCUUCAUCAAAUCUCUAGCCCACACCAGUGAUGUUGGUGUUAGCCAGGUAGGUCGCAAUCUACGGC	421	313	450	430	411
AGAACUGUCUGAGAUACCAGCCAAGGAGUGAUGUUCCGGCUCGACGAAACGUCGAGCAAUGGCCCUUGGCAGCUCAGACAGUUCA [Omei KL Theo B SS A v3]	387	80.9	182	398	242
GAUCGAUGUCAGGAUACCAGCGGAAUCGUCGGAGACUCGAGUGGAGUGAUGUUCCCAGCACGCCCUUGGCAGCCUUGUUUAAGAU [theeternabot_sameState_KL_Theo_B_19]	312	199	318	404	310
UGGGAUGUUAAAGGAUAUAGAAAGUGAUAUUAGAAAGUGAGUGAUGUUGAUGUAGGUGAUGAUAUGUUAGAAGGUUAACAAAACG [abcde]	411	219	334	303	292
GAAGGUCAAAGACCUUCGUGCACACCUGAUACCAGUCGCGAAAGCGACCCUUGGCAGCAGGGUAGUGAUGUUGCCAGUGCACAAA [#14 K4 Theophylline A Same State]	865	735	797	595	732
CCAUCGCUAUUCGAUACCAGUCAAUAGGUCUUUGGCCUAUUAAUGGAGUGAUGUUCCUUAGACCCUUGGCAGCGAAUAGUGAUGG [Theophylline B K4 12]	258	215	260	166	241
AGAUGUCCCUGGGAUACCAGUCGGAGUCUCAGGGCUCGGAGUGAUGUUCUGGGAUGUUUCGGCCCUUGGCAGCCCUGGGACUCCC [#2 Exclusion - Theophylline B Attempt #26 (HarryS)]	573	266	908	671	398
AGCUCAGAGUGACUUGAUAAGAGUCACAAACGAGGACCGGUACGGCCGCCACUCGAAAUAACGAGAGUGAUGUUCUCGCUGAGCA [FiskerMod 5 - Jieux - Same State Tryptophan A]	696	564	980	843	328
CCAUUCUUUUACGAUACCAGUUUAAUUUAUUUAUUCAUAACCCUUGCCGAGUGAUGUUCGGACCCUUGGCAGCGUUUGCGAGAGG [vvuvmullin]	331	314	463	485	358
UGGAGUUGACGAAAAGUCAACUCCUGAGAUACCAGUGACGAAGGUCACCCUUGGCAGCUCACUGCCAGUGAUGUUGGAAGAUAAA [whbob_SS_Theo_A_w47]	273	292	303	396	174
AAUAAAAUCACGGCCGCCACUGAAUAAUUGUUAAGUAGUGAUGUUACUUUACUUUUCUUAGUUAACAGGACCGGGUGAAUAUUUA [#18 K4 Tryptophan B Exclusion]	113	101	107	101	190
GCGUCCAUGUAUGAUACCAGACUUUUUUUAGUAGGUGACGAUAGUGAUGUUAUACGUCAAGUCCCUUGGCAGCAUGACCUAUUAU [theeternabot_exclusion_KL_Theo_B_23]	423	461	418	694	587
UGACUACAGGAAUAAUAAUCUUAGUGAUGUUAGGAUAUGCUGAUAAGCAGAAGGAACUGAGAUCGAAAGAUCUCAAAAGUAGUCU [#05 K4 FMN A Exclusion]	445	167	202	236	199

Source: the supplement of paper PMC9170038
